B1: Ras-related protein Rab-11A (Homo sapiens), P62491 (parent)
chain: MGTRDDEYDYLFKVVLIGDSGVGKSNLLSRFTRNEFNLESKSTIGVEFATRSIQVDGKTIKAQIWDTAGQERYRAITSAYYRGAVGALLVYDIAKHLTYENVERWLKELRDHADSNIVIMLVGNKSDLRHLRAVPTDEARAFAEKNGLSFIETSALDSTNVEAAFQTILTEIYRIVSQKQMSDRRENDMSPSNNVVPIHVPPTTENKPKVQCCQNI
partner: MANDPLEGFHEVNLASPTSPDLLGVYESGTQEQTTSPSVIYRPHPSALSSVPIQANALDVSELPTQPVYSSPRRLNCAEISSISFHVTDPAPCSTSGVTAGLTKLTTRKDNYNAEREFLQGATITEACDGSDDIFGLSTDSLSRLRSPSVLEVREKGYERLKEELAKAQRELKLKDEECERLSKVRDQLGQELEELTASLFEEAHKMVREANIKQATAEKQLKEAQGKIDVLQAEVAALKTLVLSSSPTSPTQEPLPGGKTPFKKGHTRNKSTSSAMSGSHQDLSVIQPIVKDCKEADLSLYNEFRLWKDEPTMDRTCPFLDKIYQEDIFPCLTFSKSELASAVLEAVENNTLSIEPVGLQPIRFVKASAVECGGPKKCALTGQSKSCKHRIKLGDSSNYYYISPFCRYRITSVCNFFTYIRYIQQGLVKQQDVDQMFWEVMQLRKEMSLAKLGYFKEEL

Variants of: B1
Details: with RAB3IP

effect of a mutation on the interaction | Variant
decreasing interaction | MGTRDDEYDYLFKVVLIGDSGVGKNNLLSRFTRNEFNLESKSTIGVEFATRSIQVDGKTIKAQIWDTAGQERYRAITSAYYRGAVGALLVYDIAKHLTYENVERWLKELRDHADSNIVIMLVGNKSDLRHLRAVPTDEARAFAEKNGLSFIETSALDSTNVEAAFQTILTEIYRIVSQKQMSDRRENDMSPSNNVVPIHVPPTTENKPKVQCCQNI [S25N]
increasing interaction | MGTRDDEYDYLFKVVLIGDSGVGKSNLLSRFTRNEFNLESKSTIGVEFATRSIQVDGKTIKAQIWDTAGLERYRAITSAYYRGAVGALLVYDIAKHLTYENVERWLKELRDHADSNIVIMLVGNKSDLRHLRAVPTDEARAFAEKNGLSFIETSALDSTNVEAAFQTILTEIYRIVSQKQMSDRRENDMSPSNNVVPIHVPPTTENKPKVQCCQNI [Q70L]
